From patent publication US20170240637A1 (Memorial Sloan Kettering, published 2017)
Residue numbers refer to the chain shown, from its start.

T1: 4Ig-B7H3 (human, UniProt Q5ZPR3 27-461, limits assumed)
T1 construct: also called 4Ig-B73H3
T1 sequence (looked up): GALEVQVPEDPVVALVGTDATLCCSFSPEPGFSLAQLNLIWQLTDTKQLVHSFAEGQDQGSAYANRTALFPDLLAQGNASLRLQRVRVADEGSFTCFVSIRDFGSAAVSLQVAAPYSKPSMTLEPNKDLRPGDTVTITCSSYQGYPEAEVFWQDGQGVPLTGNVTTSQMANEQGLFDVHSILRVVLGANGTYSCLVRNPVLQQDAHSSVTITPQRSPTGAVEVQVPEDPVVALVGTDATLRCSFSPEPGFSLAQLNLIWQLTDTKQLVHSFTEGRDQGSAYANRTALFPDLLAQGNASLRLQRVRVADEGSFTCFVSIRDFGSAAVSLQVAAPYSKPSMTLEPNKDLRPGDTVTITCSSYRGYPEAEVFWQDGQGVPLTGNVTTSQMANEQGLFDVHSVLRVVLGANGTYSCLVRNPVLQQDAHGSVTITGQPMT

T2: 2Ig-B7H3 without Fc fusion (human, UniProt Q5ZPR3-2 29-245, limits assumed)
T2 construct: also called 2IgB7H3 (R&D)
T2 sequence (looked up): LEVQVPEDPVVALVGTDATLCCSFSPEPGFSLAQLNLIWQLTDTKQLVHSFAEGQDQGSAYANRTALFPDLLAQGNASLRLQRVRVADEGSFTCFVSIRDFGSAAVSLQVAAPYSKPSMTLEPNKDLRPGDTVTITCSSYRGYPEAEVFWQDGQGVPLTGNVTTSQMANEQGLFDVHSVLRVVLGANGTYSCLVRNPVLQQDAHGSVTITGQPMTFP

T3: 4Ig-B7H3 fused to mouse Fc (B7H3-mFc) (human, UniProt Q5ZPR3 29-466, limits assumed, biotinylated on primary amines (NHS-biotin) in the experiment of paragraph 316)
T3 construct: Expressed in DG44 CHO cells; also called 4Ig-B7H3-Fc; 4Ig-B7H3-mFc; not shown: mouse Fc
T3 sequence (looked up): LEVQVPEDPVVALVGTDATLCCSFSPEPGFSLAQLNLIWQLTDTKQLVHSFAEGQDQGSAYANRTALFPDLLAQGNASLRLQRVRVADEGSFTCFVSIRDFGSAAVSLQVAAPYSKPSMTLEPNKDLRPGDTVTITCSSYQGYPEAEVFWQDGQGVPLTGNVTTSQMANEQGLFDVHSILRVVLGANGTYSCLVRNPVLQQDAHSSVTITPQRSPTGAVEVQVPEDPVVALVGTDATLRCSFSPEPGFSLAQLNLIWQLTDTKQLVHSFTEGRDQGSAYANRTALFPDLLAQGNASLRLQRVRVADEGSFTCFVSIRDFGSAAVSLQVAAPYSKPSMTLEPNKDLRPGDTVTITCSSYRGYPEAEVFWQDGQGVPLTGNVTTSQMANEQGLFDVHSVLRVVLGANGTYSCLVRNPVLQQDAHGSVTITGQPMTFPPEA

T4: wild type 2Ig-B7H3-mFc (human, UniProt Q5ZPR3-2 29-248, limits assumed)
T4 construct: Q5ZPR3 canonical entry is the 4Ig isoform; the 2Ig form is its shorter isoform; also called 2Ig-B7H3-Fc; WT 2Ig-B7H3-Fc; not shown: mouse Fc
T4 sequence (looked up): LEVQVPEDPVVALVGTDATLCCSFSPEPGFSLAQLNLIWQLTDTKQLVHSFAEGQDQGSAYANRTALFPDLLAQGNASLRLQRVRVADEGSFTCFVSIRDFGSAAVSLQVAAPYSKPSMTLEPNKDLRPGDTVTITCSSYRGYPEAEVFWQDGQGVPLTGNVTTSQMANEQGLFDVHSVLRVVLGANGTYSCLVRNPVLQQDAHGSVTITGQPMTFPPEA

T5: 2Ig-B7H3-mFc mutant R127A (human, UniProt Q5ZPR3-2 29-248, limits assumed)
T5 construct: not shown: mouse Fc
T5 sequence (looked up): T4 sequence (looked up) with R99A

B1: hu8H9 3.1 IgG1 (antibody, V domains shown)
VH: QVQLVQSGAEVVKPGASVKLSCKTSGYTFTNYDINWVRQRPGQGLEWIGWIFPGDDSTQYNEKFKGKATLTTDTSTSTAYMELSSLRSEDTAVYFCARQTTGTWFAYWGQGTLVTVSS
VL: EIVMTQSPATLSVSPGERVTLSCRASQSISDYLYWYQQKSHESPRLLIKYASQSISGIPARFSGSGSGSEFTLTINSVEPEDVGVYYCQNGHSFPLTFGQGTKLELKR
notes: also called clone 3.1
B2: mouse/human chimeric 8H9 (ch8H9) IgG1 (antibody, V domains shown)
VH: QVQLQQSGAELVKPGASVKLSCKASGYTFTNYDINWVRQRPEQGLEWIGWIFPGDGSTQYNEKFKGKATLTTDTSSSTAYMQLSRLTSEDSAVYFCARQTTATWFAYWGQGTLVTVSA
VL: B1 VL with E1D, S14T, E17D, T20S, Y34H, A60S, E70D, T74S, Q100A
B3: hu8H9 5.1 IgG1 (antibody, V domains shown)
VH: B1 VH with L20V, K67R, A68V, L70M, A79V
VL: B1 VL with E42Q, S43A, N76S, V78L, E79Q, V83F
notes: also called clone 5.1

How the values were obtained:
4Ig-B7H3 [1] = molecular target: T1, 4Ig-B7H3; experiment: SPR
[2] = molecular target: T2, 2Ig-B7H3 without Fc fusion; experiment: SPR
[3] = molecular target: B7H3 on B7H3-positive human tumor cells (M14, LAN-1, IMR-32, HeLa) (human) (UniProt Q5ZPR3); experiment: cell-based or functional assay
[4] = molecular target: T3, 4Ig-B7H3 fused to mouse Fc (B7H3-mFc); experiment: SPR, IgG on 4Ig-B7H3-Fc
Description: (§1) In brief, B7H3 antigen (either 2Ig-B7H3, 4Ig-B7H3, 2Ig-B7H3-mFc, 4Ig-B7H3-mFc), was directly immobilized onto the CM5 sensor chip via […]. Reference surface was set up for nonspecific binding and refractive index changes. […] The association and dissociation phase data were fitted simultaneously to a 1:1 model by using BIAevaluation 3.2. All the experiments were done at 25° C.

wild type 2Ig-B7H3-mFc [5] = molecular target: T4, wild type 2Ig-B7H3-mFc; experiment: SPR, IgG on 2Ig-B7H3-mFc
Description: as §1

[6] = molecular target: T2, 2Ig-B7H3 without Fc fusion; experiment: SPR, IgG on 2Ig-B7-H3 without Fc fusion
Description: as §1

4Ig-B7H3 [7] = molecular target: T1, 4Ig-B7H3; experiment: SPR, IgG on 4Ig-B7-H3 without Fc fusion
Description: as §1

[8] = molecular target: B7H3 on B7H3-positive human tumor cells (M14, LAN-1, IMR-32, HeLa) (human) (UniProt Q5ZPR3); experiment: cell-binding assay of 131I-labelled antibody on LAN-1 cells
[9] = molecular target: T5, 2Ig-B7H3-mFc mutant R127A; experiment: SPR, IgG over immobilised 2Ig-B7H3-mFc R127A (left panel); antibody concentration not shown
wild type 2Ig-B7H3-mFc [10] = molecular target: T4, wild type 2Ig-B7H3-mFc; experiment: SPR, antigen on CM5 chip
Description: (§2) In brief, B7H3 antigen (either 2Ig-B7H3, 4Ig-B7H3, 2Ig-B7H3-mFc, 4Ig-B7H3-mFc), was directly immobilized onto the CM5 sensor chip via […]. Reference surface was set up for nonspecific binding and refractive index changes. For analysis of the kinetics of interactions, varying concentrations of scFvs were injected at flow rate of 30 μl/min using running buffer containing 10 mM HEPES, 150 mM NaCl, 3 mM EDTA, and 0.05% Surfactant P-20 (pH 7.4). The association and dissociation phase data were fitted simultaneously to a 1:1 model by using BIAevaluation 3.2. All the experiments were done at 25° C.

[11] = molecular target: T5, 2Ig-B7H3-mFc mutant R127A; experiment: SPR, mutant 2Ig-B7H3-mFc on chip
Description: as §2

4Ig-B7H3 [12] = molecular target: T1, 4Ig-B7H3; experiment: ELISA titled 'B7H3 ELISA'; legend: 4Ig-B7H3 (the ELISA method coats B7H3-mFc); IgG serially diluted
Description: B7H3-mFc (100 ng/well) or 2IgB7H3 (R&D, Minneapolis, Minn.) (25 ng/well) were coated on polyvinyl microtiter plates in PBS overnight. Plates were then blocked with 0.5% BSA in PBS at 150 μl per well for 1 h at room temperature. Antibodies were added in triplicates with serial dilution in 0.5% BSA. Following incubation for 1 h at room temperature and washing with PBS, HRP-mouse anti-human Fc antibody, HRP-streptavidin, or HRP-mouse anti-Flag antibody was added. After incubation for 1 h at room temperature and further washing, the color was developed and quantified using an ELISA plate reader at 490 nm.

[13] = molecular target: T5, 2Ig-B7H3-mFc mutant R127A; experiment: SPR, IgG over immobilised 2Ig-B7H3-mFc R127A (right panel); antibody concentration not shown

| Binder | ADCC EC50 (µg/ml), 51Cr release, LAN-1 targets, human PBMC effectors [3] [µg/mL] | Fold change EC50 relative to ch8H9 (ADCC) [3] [fold] | Kd [4] [nM] | koff [4] [s⁻¹] | kon [4] [M⁻¹ s⁻¹] | Kd (wild type 2Ig-B7H3-mFc [5]) [nM] | koff (wild type 2Ig-B7H3-mFc [5]) [s⁻¹] | kon (wild type 2Ig-B7H3-mFc [5]) [M⁻¹ s⁻¹] | Kd [6] [nM] | koff [6] [s⁻¹] | kon [6] [M⁻¹ s⁻¹] | Kd (4Ig-B7H3 [7]) [nM] | koff (4Ig-B7H3 [7]) [s⁻¹] | kon (4Ig-B7H3 [7]) [M⁻¹ s⁻¹] | also measured |
| --- | --- | --- | --- | --- | --- | --- | --- | --- | --- | --- | --- | --- | --- | --- | --- |
| B1 | 0.31 | 5 | 2 | 0.000114 | 55600 | 6 | 0.000232 | 38700 | 5 | 0.000171 | 33900 | 13 | 0.000298 | 23400 | fold enhancement in affinity against parental hu8H9 H3L3 (4Ig-B7H3 [1]): 2.5 to 9 fold; fold enhancement in affinity against parental hu8H9 H3L3 [2]: 2.5 to 9 fold; in vitro immunoreactivity [8]: 54%; binding result [9]: no binding |
| B2 | – | – | 1.2 | 5.49e-05 | 44800 | 0.76 | 3.79e-05 | 49600 | 2.7 | 8.73e-05 | 32100 | 7.7 | 0.000218 | 28300 | Kd (wild type 2Ig-B7H3-mFc [10]): 0.74 nM; koff (wild type 2Ig-B7H3-mFc [10]): 3.51e-05 s⁻¹; kon (wild type 2Ig-B7H3-mFc [10]): 47400 M⁻¹ s⁻¹; binding result [11]: no binding (tested: 400 nM); EC50 (read off the curve) (4Ig-B7H3 [12]): ~0.005 µg/mL |
| B3 | 0.16 | 9 | 1.3 | 7.08e-05 | 59200 | 0.82 | 5.59e-05 | 67800 | – | – | – | – | – | – | binding result [13]: no binding |
